Measured values published in article PMC5377774.

Target: His827 (UniProt position 827, GQFLDHDLDST)
Assay: kinetics (stopped-flow UV-vis spectroscopy)
Settings: 25 °C (stated for the stopped-flow reactions in general; not restated for the pH profile); Citrate phosphate buffer pH 4-5.5; phosphate buffer pH 5.5-8; carbonate buffer pH 9 and 10. A concentration of 100 mM is given for the analogous bromide pH profile in the Fig. 7D caption.; Ferric high-spin resting enzyme reacting with H2O2 to form compound I; heme covalently linked

## Peroxidasin 1, truncated construct hsPxd01-con4 (four Ig domains + peroxidase domain) (Homo sapiens)
  pKa: ∼4.7
